# Patent US20220119534A1 (DRAGONFLY THERAPEUTICS, published 2022)
# T1: Human CLEC12A expressed on cells (Ba/F3-hCLEC12A, PL21, HL60) (human, UniProt Q5QGZ9 1-265)
# T1 sequence: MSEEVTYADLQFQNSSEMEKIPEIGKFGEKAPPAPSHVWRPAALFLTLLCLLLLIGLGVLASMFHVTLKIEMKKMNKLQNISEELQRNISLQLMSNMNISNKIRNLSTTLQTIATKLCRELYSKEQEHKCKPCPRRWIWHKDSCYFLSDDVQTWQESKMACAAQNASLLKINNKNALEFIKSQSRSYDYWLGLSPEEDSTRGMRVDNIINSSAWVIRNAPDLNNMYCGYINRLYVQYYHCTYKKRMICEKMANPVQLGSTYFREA
# T2: human CLEC12A expressed on cells (human, UniProt Q5QGZ9 1-265)
# T2 construct: Transduced isogenic cells or endogenous expression on AML cells; also called RMA-hCLEC12A; Ba/F3-hCLEC12A
# T2 sequence: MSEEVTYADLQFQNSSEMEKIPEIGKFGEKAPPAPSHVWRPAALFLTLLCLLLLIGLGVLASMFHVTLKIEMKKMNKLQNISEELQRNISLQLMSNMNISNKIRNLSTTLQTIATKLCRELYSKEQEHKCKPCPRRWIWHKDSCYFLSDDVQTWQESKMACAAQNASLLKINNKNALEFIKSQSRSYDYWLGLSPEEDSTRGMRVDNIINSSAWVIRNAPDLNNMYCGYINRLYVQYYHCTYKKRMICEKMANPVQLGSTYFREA
# T3: recombinant human CLEC12A-His (human, UniProt Q5QGZ9 65-265)
# T3 construct: also called hCLEC12A-His; hCLEC12A
# T3 sequence: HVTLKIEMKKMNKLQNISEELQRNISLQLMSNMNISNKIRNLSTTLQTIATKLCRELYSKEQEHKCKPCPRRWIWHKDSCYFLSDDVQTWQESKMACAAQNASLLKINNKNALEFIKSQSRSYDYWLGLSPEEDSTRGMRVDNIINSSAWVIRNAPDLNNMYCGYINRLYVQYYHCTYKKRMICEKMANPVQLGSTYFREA
# T4: recombinant cynomolgus CLEC12A-His (cynomolgus monkey, UniProt A0A2K5WXQ4 71-271)
# T4 construct: also called cCLEC12A-His; cCLEC12A
# T4 sequence: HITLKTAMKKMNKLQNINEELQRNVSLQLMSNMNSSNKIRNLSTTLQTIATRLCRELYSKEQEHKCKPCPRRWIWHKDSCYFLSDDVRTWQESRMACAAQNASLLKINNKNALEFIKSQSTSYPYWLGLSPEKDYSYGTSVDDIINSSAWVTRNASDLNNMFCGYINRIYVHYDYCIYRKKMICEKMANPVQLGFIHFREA
# Experiments:
# [1] = biological target: T1, Human CLEC12A expressed on cells …; assay: cell-based or functional assay
# [2] = biological target: T1, Human CLEC12A expressed on cells …; assay: cell-based or functional assay; remark: listed apart in the source
# [3] = biological target: T2, human CLEC12A expressed on cells; assay: flow cytometry on HL-60 cells, fold over background
# Procedure: (§1) The cells were then incubated with a fluorophore conjugated anti-human IgG secondary antibody and were analyzed by flow cytometry. The mean fluorescence intensity (MFI) values were normalized to secondary antibody only controls to obtain fold over background (FOB) values.
# (§2) 100,000 cells were seeded per well into a 96-well plate for FACS staining. Cells were washed with PBS. Cells were incubated in a 1:2000 dilution of live/dead dye in PBS for 15 minutes, then washed with FACS buffer. TriNKETs or mAbs were diluted into FACS buffer, and 50 μl containing diluted TriNKET or mAb was added to cells. Cells were incubated on ice for 20 minutes. After the incubation, cells were washed with FACS buffer. Anti-human IgG-Fc secondary antibody was diluted into FACS buffer, and 50 μl was added per well for detection of the bound TriNKETs or mAbs. Cells were incubated for 20 minutes on ice, then washed with FACS buffer. 50 μl of fixation buffer was added to each well, and cells were incubated for 10 minutes at room temperature. Cells were washed with FACS buffer and resuspended in FACS buffer for analysis with BD FACS Celesta SN #H66034400085, or BD FACS Celesta SN #H66034400160. Cells of interest were identified using FSC vs. SSC plot, and an appropriately shaped gate was drawn around the cells. Within the gated cells, doublet cells were removed by viewing FSC-H vs FSC-A plot. Within the single cell population, live cells were gated. Within the live gate, the mean fluorescence intensity (MFI) of each sample and the secondary-only control was calculated. Fold-over-background (FOB) was calculated as the ratio of test article MFI over secondary-only background MFI. Data were fit to a four-parameter non-linear regression curve using GraphPad Prism 7.0.
# [4] = biological target: T2, human CLEC12A expressed on cells; assay: flow cytometry on Ba/F3-hCLEC12A cells, fold over background
# Procedure: as §1, §2
# [5] = biological target: T3, recombinant human CLEC12A-His; assay: SPR, purified murine mAb
# [6] = biological target: T4, recombinant cynomolgus CLEC12A-His; assay: SPR, purified murine mAb
# [7] = biological target: T2, human CLEC12A expressed on cells; assay: flow cytometry on PL-21 cells, fold over background
# Procedure: as §1
# 100,000 cells were seeded per well into a 96-well plate for FACS staining. Cells were washed with PBS. Cells were incubated in a 1:2000 dilution of live/dead dye in PBS for 15 minutes, then washed with FACS buffer. TriNKETs or mAbs were diluted into FACS buffer, and 50 μl containing diluted TriNKET or mAb was added to cells. Cells were incubated on ice for 20 minutes. After the incubation, cells were washed with FACS buffer. Anti-human IgG-Fc secondary antibody was diluted into FACS buffer, and 50 μl was added per well for detection of the bound TriNKETs or mAbs. Cells were incubated for 20 minutes on ice, then washed with FACS buffer. 50 μl of fixation buffer was added to each well, and cells were incubated for 10 minutes at room temperature. […] Within the live gate, the mean fluorescence intensity (MFI) of each sample and the secondary-only control was calculated. Fold-over-background (FOB) was calculated as the ratio of test article MFI over secondary-only background MFI. […]
# [8] = biological target: T3, recombinant human CLEC12A-His; assay: SPR screening, semi-purified
# Procedure: Binding affinities of the 18 semi-purified TriNKETs for hCLEC12A were assessed by SPR in screening.
# [9] = biological target: T2, human CLEC12A expressed on cells; assay: flow cytometry on RMA-hCLEC12A cells
# [10] = biological target: T2, human CLEC12A expressed on cells; assay: flow cytometry, hCLEC12A+ Ba/F3
binder,measurement,setting,value
"AB0305 mAb (Humanized 1739 anti-CLEC12A mAb) (antibody, V domains shown) VH: QLQLQESGPGLVKPSETLSLTCTVSGFSLTNYGLHWIRQPPGKGLEWIGVIWVGGATDYNPSLKSRVTISVDTSKNQFSLKLSSVQAADTAVYYCAKGDYGDTLDYWGQGTLVTVSS VL: DIQMTQSPSSLSASVGDRVTITCHASQNINFWLSWYQQKPGKAPKLLIYEASNLHTGVPSRFSGSGSGTDFTLTISSLQPEDFATYYCQQSHSYPLTFGSGTKLEIK","EC50, primary NK mediated cytotoxic killing of PL21 cells",[1],1.85 nM
same,"% Max, ADCP activity of M0 macrophages against PL21 cells",[2],10%
same,"EC50, ADCP activity of M0 macrophages against PL21 cells",[2],0.02 nM
"AB0305 (antibody, IgG1, V domains shown, hIgG1 mAb; also called Humanized 1739 anti-CLEC12A mAb; parental mAb of AB0089) VH: QLQLQESGPGLVKPSETLSLTCTVSGFSLTNYGLHWIRQPPGKGLEWIGVIWVGGATDYNPSLKSRVTISVDTSKNQFSLKLSSVQAADTAVYYCAKGDYGDTLDYWGQGTLVTVSS VL: DIQMTQSPSSLSASVGDRVTITCHASQNINFWLSWYQQKPGKAPKLLIYEASNLHTGVPSRFSGSGSGTDFTLTISSLQPEDFATYYCQQSHSYPLTFGSGTKLEIK",EC50 (read off the curve),[3],~0.1 nM
same,EC50 (read off the curve),[4],~0.6 nM
"AB0306 (antibody, IgG1, V domains shown, hIgG1 mAb; also called Humanized 1797 anti-CLEC12A mAb; parental mAb of AB0192) VH: EVQLVESGGGVVQPGGSLRLSCAASGFTFNAFGMHWVRQAPGKGLEWVAFISSGSTSIYYANTVKGRFTISRDNSKNTLYLQMNSLRAEDTAVYYCARDGYPTGGAMDYWGQGTSVTVSS VL: DIQMTQSPSSLSASVGDRVTITCKASQDIYNYLSWFQQKPGKAPKPLIYRANILVSGVPSRFSGSGSGQDYTFTISSLQPEDIATYYCLQFDAFPFTFGSGTKLEIK",EC50 (read off the curve),[3],~0.5 nM
same,EC50 (read off the curve),[4],~0.8 nM
"15A10.G8 (antibody, V domains shown, Murine mAb) VH: EVQLQESGAELVRSGASIKLSCAASAFNIKDYFIHWVRQRPDQGLEWIGWIDPENDDTEYAPKFQDKATMTADTSSNTAYLQLSSLTSADTAVYYCNALWSRGGYFDYWGQGTTLTVSS VL: EVLLTQSPAIIAASPGEKVTITCSARSSVSYMSWYQQKPGSSPKIWIYGISKLASGVPARFSGSGSGTYFSFTINNLEAEDVATYYCQQRSYYPFTFGSGTKLEIK",Kd,[5],1.6 nM
same,koff,[5],0.000494 s⁻¹
same,kon,[5],301000 M⁻¹ s⁻¹
same,Kd,[6],3.3 nM
same,koff,[6],0.000659 s⁻¹
same,kon,[6],196000 M⁻¹ s⁻¹
"AB0300 (other, name in EU numbering, AB0237 with LALAPG in both Fc chains) QLQLQESGPGLVKPSETLSLTCTVSGFSLTNYGLHWIRQPPGKCLEWIGVIWSGGKTDYNPSLKSRVTISKDTSKNQFSLKLSSVQAADTAVYYCAKYDYDDSLDYWGQGTLVTVSSGGGGSGGGGSGGGGSGGGGSDIQMTQSPSSLSASVGDRVTITCHASQNINFWLSWYQQKPGKAPKLLIYEASNLHTGVPSRFSGSGSGTRFTLTISSLQPEDIATYYCQQSHSYPLTFGCGTKLEIKGSDKTHTCPPCPAPEAAGGPSVFLFPPKPKDTLMISRTPEVTCVVVDVSHEDPEVKFNWYVDGVEVHNAKTKPREEQYNSTYRVVSVLTVLHQDWLNGKEYKCKVSNKALGAPIEKTISKAKGQPREPRVYTLPPCRDELTKNQVSLTCLVKGFYPSDIAVEWESNGQPENNYKTTPPVLVSDGSFTLYSKLTVDKSRWQQGNVFSCSVMHEALHNHYTQKSLSLSPG heavy: EVQLVESGGGLVKPGGSLRLSCAASGFTFSSYSMNWVRQAPGKGLEWVSSISSSSSYIYYADSVKGRFTISRDNAKNSLYLQMNSLRAEDTAVYYCARGAPIGAAAGWFDPWGQGTLVTVSSASTKGPSVFPLAPSSKSTSGGTAALGCLVKDYFPEPVTVSWNSGALTSGVHTFPAVLQSSGLYSLSSVVTVPSSSLGTQTYICNVNHKPSNTKVDKKVEPKSCDKTHTCPPCPAPEAAGGPSVFLFPPKPKDTLMISRTPEVTCVVVDVSHEDPEVKFNWYVDGVEVHNAKTKPREEQYNSTYRVVSVLTVLHQDWLNGKEYKCKVSNKALGAPIEKTISKAKGQPREPQVCTLPPSRDELTENQVSLTCLVKGFYPSDIAVEWESNGQPENNYKTTPPVLDSDGSFFLYSWLTVDKSRWQQGNVFSCSVMHEALHNHYTQKSLSLSPG light: DIQMTQSPSSVSASVGDRVTITCRASQGISSWLAWYQQKPGKAPKLLIYAASSLQSGVPSRFSGSGSGTDFTLTISSLQPEDFATYYCQQGVSFPRTFGGGTKVEIKRTVAAPSVFIFPPSDEQLKSGTASVVCLLNNFYPREAKVQWKVDNALQSGNSQESVTEQDSKDSTYSLSSTLTLSKADYEKHKVYACEVTHQGLSSPVTKSFNRGEC",EC50 (read off the curve),[7],~2 nM
"F3'-1304 (other, As F3'-1292) DIQMTQSPSSLSASVGDRVTITCHASQNINFWLSWYQQKPGKIPKLLIYEASNLHTGVPSRFSGSGSGTRFTLTISSLQPEDIATYYCQQSHSYPLTFGCGTKLEIKGGGGSGGGGSGGGGSGGGGSQLQLQESGPGLVKPSETLSLTCTVSGFSLTNYGLHWIRQPPGKCLEWIGVIWSGGKTDYNPSLKSRVTISKDTSKNQFSLKLSSVQAADTAVYYCAKYDYDDSLDYWGQGTLVTVSSGSDKTHTCPPCPAPELLGGPSVFLFPPKPKDTLMISRTPEVTCVVVDVSHEDPEVKFNWYVDGVEVHNAKTKPREEQYNSTYRVVSVLTVLHQDWLNGKEYKCKVSNKALPAPIEKTISKAKGQPREPRVYTLPPCRDELTKNQVSLTCLVKGFYPSDIAVEWESNGQPENNYKTTPPVLVSDGSFTLYSKLTVDKSRWQQGNVFSCSVMHEALHNHYTQKSLSLSPG heavy: EVQLVESGGGLVKPGGSLRLSCAASGFTFSSYSMNWVRQAPGKGLEWVSSISSSSSYIYYADSVKGRFTISRDNAKNSLYLQMNSLRAEDTAVYYCARGAPIGAAAGWFDPWGQGTLVTVSSASTKGPSVFPLAPSSKSTSGGTAALGCLVKDYFPEPVTVSWNSGALTSGVHTFPAVLQSSGLYSLSSVVTVPSSSLGTQTYICNVNHKPSNTKVDKKVEPKSCDKTHTCPPCPAPELLGGPSVFLFPPKPKDTLMISRTPEVTCVVVDVSHEDPEVKFNWYVDGVEVHNAKTKPREEQYNSTYRVVSVLTVLHQDWLNGKEYKCKVSNKALPAPIEKTISKAKGQPREPQVCTLPPSRDELTENQVSLTCLVKGFYPSDIAVEWESNGQPENNYKTTPPVLDSDGSFFLYSWLTVDKSRWQQGNVFSCSVMHEALHNHYTQKSLSLSPG light: DIQMTQSPSSVSASVGDRVTITCRASQGISSWLAWYQQKPGKAPKLLIYAASSLQSGVPSRFSGSGSGTDFTLTISSLQPEDFATYYCQQGVSFPRTFGGGTKVEIKRTVAAPSVFIFPPSDEQLKSGTASVVCLLNNFYPREAKVQWKVDNALQSGNSQESVTEQDSKDSTYSLSSTLTLSKADYEKHKVYACEVTHQGLSSPVTKSFNRGEC",Kd,[8],2.7 nM
same,koff,[8],0.0013 s⁻¹
same,kon,[8],480000 M⁻¹ s⁻¹
same,EC50 (read off the curve),[9],~10 nM
"hcFAE-A49.CLL1-Merus (bispecific antibody, V domains shown, Duobody TriNKET: CLEC12A Fab of Merus CLL1 and NKG2D Fab A49; also called hcFAE-A49.CLL-Merus; control CLEC12A-TriNKET) VH 1: EVQLVQSGAEVKKPGASVKVSCKASGYTFTSYYMHWVRQAPGQGLEWMGIINPSGGSTSYAQKFQGRVTMTRDTSTSTVYMELSSLRSEDTAVYYCARGNYGDEFDYWGQGTLVTVSS VL 1: not shown VH 2: EVQLVESGGGLVKPGGSLRLSCAASGFTFSSYSMNWVRQAPGKGLEWVSSISSSSSYIYYADSVKGRFTISRDNAKNSLYLQMNSLRAEDTAVYYCARGAPMGAAAGWFDPWGQGTLVTVSS VL 2: DIQMTQSPSSVSASVGDRVTITCRASQGISSWLAWYQQKPGKAPKLLIYAASSLQSGVPSRFSGSGSGTDFTLTISSLQPEDFATYYCQQGVSFPRTFGGGTKVEIK",EC50,[10],14.3 nM
same,Max MFI,[10],39700 MFI
same,EC50 (read off the curve),[9],~3 nM
